Test results as given in patent publication KR20170108690A (dated 2017).

Target: T1, BSA (UniProt P02769 25-607)
T1 construct: also called 음성 대조군; 대조군
Assay: ELISA of clone supernatant on coated antigen

T1 sequence (P02769 25-607 limits assumed): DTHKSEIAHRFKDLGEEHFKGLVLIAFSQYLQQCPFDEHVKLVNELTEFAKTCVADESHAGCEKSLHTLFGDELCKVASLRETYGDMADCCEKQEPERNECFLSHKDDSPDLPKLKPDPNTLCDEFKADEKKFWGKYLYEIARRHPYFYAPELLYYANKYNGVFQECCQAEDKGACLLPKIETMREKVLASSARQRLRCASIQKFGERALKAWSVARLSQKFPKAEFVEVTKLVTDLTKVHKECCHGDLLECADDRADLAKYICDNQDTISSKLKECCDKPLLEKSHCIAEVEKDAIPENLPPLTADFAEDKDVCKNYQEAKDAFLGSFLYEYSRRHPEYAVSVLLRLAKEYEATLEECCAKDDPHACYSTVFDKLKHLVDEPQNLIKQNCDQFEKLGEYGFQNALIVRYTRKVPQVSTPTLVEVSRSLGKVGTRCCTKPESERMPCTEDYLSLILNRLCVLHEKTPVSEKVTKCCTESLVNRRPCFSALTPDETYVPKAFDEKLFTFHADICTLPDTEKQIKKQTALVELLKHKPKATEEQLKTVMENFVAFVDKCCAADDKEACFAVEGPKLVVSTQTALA

B1: NA-A4 항체 클론 (Fab 형태, 파지 디스플레이 클론의 IPTG 유도 상층액) (Fab, V domains shown)
VH: EVQLVESGGGLVQPGGSLRLSCAASGFTFNSYWMSWVRQAPGKGLEWVSWITPTSGTTYYADSVKGRFTISRDNSKNTLYLQMNSLRAEDTAVYYCARVEDWDIGYYGMDYWGQGTLVTVSS
VL: DIQMTQSPSSLSASVGDRVTITCRASQSVSNWLAWYQQKPGKAPKLLIYWASSLESGVPSRFSGSGSGTDFTLTISSLQPEDFATYYCQQYYNHPYTFGQGTKVEIK
notes: also called Influenza NA-A4 antibody; 인플루엔자 NA-A4 항체
binding result: no binding
